Laboratory results taken from paper PMC12827253, “GADD45β inhibits RIPK3-mediated NF-κB activation by interfering with NEMO-RIPK1-RIPK3 interactions” (Cell Death Discovery, 2025).

Molecular target: T1, human recombinant RIPK3 (human, UniProt Q9Y572 1-518)
T1 construct: RIPK3, human, bought recombinant protein; also called rhRIPK3; source: bought: Mybiosource cod; MBS1442585
Assay: BLI; rhRIPK3 immobilised on AR2G sensor (10 μg/mL in 10 mM NaAc pH 4.5); rhGADD45β as analyte, 3.1–100 nM; 25 mM Tris pH 7.5, 100 mM NaCl, 0.02% Tween 20, 0.1% BSA; 25 °C; 1:1 Langmuir model; apparent
Settings: both partners purified

T1 sequence (Q9Y572 whole entry): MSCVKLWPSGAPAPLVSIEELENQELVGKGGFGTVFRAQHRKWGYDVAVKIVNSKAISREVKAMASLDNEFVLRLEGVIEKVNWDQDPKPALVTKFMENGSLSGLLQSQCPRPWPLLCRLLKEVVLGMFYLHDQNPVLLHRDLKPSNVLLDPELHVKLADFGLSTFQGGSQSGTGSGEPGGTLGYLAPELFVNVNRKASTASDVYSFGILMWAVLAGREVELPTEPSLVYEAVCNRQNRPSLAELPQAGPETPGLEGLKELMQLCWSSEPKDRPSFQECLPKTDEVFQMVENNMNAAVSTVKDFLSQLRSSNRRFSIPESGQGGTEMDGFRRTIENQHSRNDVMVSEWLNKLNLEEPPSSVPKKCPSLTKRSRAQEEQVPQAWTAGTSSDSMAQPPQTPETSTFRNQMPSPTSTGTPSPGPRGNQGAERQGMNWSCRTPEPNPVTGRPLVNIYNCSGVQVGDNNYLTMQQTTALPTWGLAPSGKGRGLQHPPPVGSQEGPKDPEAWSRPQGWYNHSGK

Kd: 1.73 nM
B1: recombinant human GADD45β (natural protein, UniProt O75293 1-160, looked up)
chain: MTLEELVACDNAAQKMQTVTAAVEELLVAAQRQDRLTVGVYESAKLMNVDPDSVVLCLLAIDEEEEDDIALQIHFTLIQSFCCDNDINIVRVSGMQRLAQLLGEPAETQGTTEARDLHCLLVTNPHTDAWKSHGLVEVASYCEESRGNNQWVPYISLQER
notes: GADD45β, human, recombinant; also called rhGADD45β; Growth Arrest and DNA Damage-inducible beta
